Reference: publication PMC3153034

Biological target: recombinant Smc04048 cytochrome c from Sinorhizobium meliloti (Sinorhizobium meliloti)
Test: SEC

- stoichiometry N: 2
Substance: recombinant Smc04048 cytochrome c from Sinorhizobium meliloti (natural protein)
